Laboratory results published in publication PMC11718114.

Experiments:
[1] = target: PI3Kα: p110α(2-1068) W1057A/I1058A/F1059A + p85(322-600) (human) (UniProt P42336); assay: ITC; GMPPNP-bound RAS (300–500 μM) in the syringe, PI3K isoform or PI3Kα-RBD (30–50 μM) in the cell; 25 °C; 20 mM HEPES pH 7.4, 150 mM NaCl, 5 mM MgCl2, 1 mM TCEP; one set of sites; duplicates
PI3Kα-RBD-T208A (human) = PI3Kα-RBD-T208A (human) (UniProt P42336); assay: ITC; RAS GTPase (GMPPNP-bound, 300–500 μM) in the syringe, PI3K isoform or PI3Kα-RBD (30–50 μM) in the cell; 25 °C; 20 mM HEPES pH 7.4, 150 mM NaCl, 5 mM MgCl2, 1 mM TCEP; one set of sites; two replicates
[2] = target: PI3Kδ: p110δ(1-1044) + p85(322-600) (human) (UniProt O00329); assay: ITC; GMPPNP-bound RAS (300–500 μM) in the syringe, PI3K isoform or PI3Kα-RBD (30–50 μM) in the cell; 25 °C; 20 mM HEPES pH 7.4, 150 mM NaCl, 5 mM MgCl2, 1 mM TCEP; one set of sites; duplicates
[3] = target: p110α-RBD(157-289) K206A (human) (UniProt P42336); assay: as above
[4] = target: p110α-RBD(157-289) K210A (human) (UniProt P42336); assay: as above
[5] = target: p110α-RBD(157-289) T208A (human) (UniProt P42336); assay: as above
[6] = target: PI3Kα-RBD, PIK3CA-RBD(157-289) (human) (UniProt P42336); assay: as above
PI3Kα-RBD-S231A (human) = PI3Kα-RBD-S231A (human) (UniProt P42336); assay: ITC; RAS GTPase (GMPPNP-bound, 300–500 μM) in the syringe, PI3K isoform or PI3Kα-RBD (30–50 μM) in the cell; 25 °C; 20 mM HEPES pH 7.4, 150 mM NaCl, 5 mM MgCl2, 1 mM TCEP; one set of sites; two replicates
PI3Kα-RBD-Q205A (human) = PI3Kα-RBD-Q205A (human) (UniProt P42336); assay: as above
PI3Kα-RBD-K210A (human) = PI3Kα-RBD-K210A (human) (UniProt P42336); assay: as above
PI3Kα-RBD-K206A (human) = PI3Kα-RBD-K206A (human) (UniProt P42336); assay: as above
[7] = target: PI3Kα-RBD, PIK3CA-RBD(157-289) (human) (UniProt P42336); assay: as above

Substance	Kd [7] [µM]	stoichiometry N [7] [sites]	also measured
MRAS (wild type) (from UniProt O14807 1-178) (domain or fragment)			Kd [1]: 5.3 µM; dH [1]: -71.1 kJ/mol
MRAS, GMPPNP-bound (from UniProt O14807 1-178) (domain or fragment)			Kd (PI3Kα-RBD-T208A (human)): 19.5 µM; stoichiometry N (PI3Kα-RBD-T208A (human)): 0.93 sites
RRAS2 (wild type) (from UniProt P62070 1-179) (domain or fragment)			Kd [2]: 14 µM; fold reduction in affinity against wild-type p110α-RBD [3]: 15 fold; Kd [1]: 3.9 µM; dH [1]: -71.1 kJ/mol; fold decrease in affinity against wild-type p110α-RBD [4]: 5 fold; fold decrease in affinity against wild-type p110α-RBD [5]: 5 fold
RRAS2 T52R (from UniProt P62070 1-179) (domain or fragment)			fold reduction in binding affinity against wild-type RRAS2 [6]: 7 fold
RRAS2, GMPPNP-bound (from UniProt P62070 1-179) (domain or fragment)			Kd (PI3Kα-RBD-S231A (human)): 8.3 µM; stoichiometry N (PI3Kα-RBD-S231A (human)): 0.88 sites; Kd (PI3Kα-RBD-Q205A (human)): 8.2 µM; stoichiometry N (PI3Kα-RBD-Q205A (human)): 0.86 sites; Kd (PI3Kα-RBD-K210A (human)): 41.7 µM; stoichiometry N (PI3Kα-RBD-K210A (human)): 0.81 sites; Kd (PI3Kα-RBD-T208A (human)): 45 µM; stoichiometry N (PI3Kα-RBD-T208A (human)): 0.9 sites; Kd (PI3Kα-RBD-K206A (human)): 107 µM; stoichiometry N (PI3Kα-RBD-K206A (human)): 0.92 sites
RRAS2-D42A, GMPPNP-bound (from UniProt P62070 1-179) (domain or fragment)	66.9	1.2	
RRAS2-D42E, GMPPNP-bound (from UniProt P62070 1-179) (domain or fragment)	16.1	0.89	
RRAS2-D44A, GMPPNP-bound (from UniProt P62070 1-179) (domain or fragment)	28.2	0.81	
RRAS2-E48A, GMPPNP-bound (from UniProt P62070 1-179) (domain or fragment)	32.4	0.92	
RRAS2-G23D, GMPPNP-bound (from UniProt P62070 1-179) (domain or fragment)	6.4	0.75	
RRAS2-G23V, GMPPNP-bound (from UniProt P62070 1-179) (domain or fragment)	12.8	0.91	
RRAS2-M78A, GMPPNP-bound (from UniProt P62070 1-179) (domain or fragment)	134	1.2	
RRAS2-Q72H, GMPPNP-bound (from UniProt P62070 1-179) (domain or fragment)	14.2	0.85	
RRAS2-Q72L, GMPPNP-bound (from UniProt P62070 1-179) (domain or fragment)	8.5	0.88	
RRAS2-T52R, GMPPNP-bound (from UniProt P62070 1-179) (domain or fragment)	28.5	1.01	

The next lines start with results.

Kd [7] [µM]	stoichiometry N [7] [sites]	Substance	also measured
12.4	0.83	RRAS2-E74A, GMPPNP-bound (from UniProt P62070 1-179) (domain or fragment)	
21.5	1.11	RRAS2-F75A, GMPPNP-bound (from UniProt P62070 1-179) (domain or fragment)	
6.4	0.9	RRAS2-R63A, GMPPNP-bound (from UniProt P62070 1-179) (domain or fragment)	
4.3	0.92	RRAS2-Y38F, GMPPNP-bound (from UniProt P62070 1-179) (domain or fragment)	
